{
  "source": "patent US20230242623A1",
  "about": "(GEORGIA TECH RESEARCH, published 2023)",
  "molecular_target": "T1, SARS-CoV-2 spike ectodomain protein (SARS-CoV-2, UniProt P0DTC2 14-1213)",
  "T1 construct": "extracellular domain",
  "assay": "BLI, immobilized spike ectodomain; avidity reported as 1/Kads",
  "data": [
    {"binder": "3A7 (antibody, V domains shown, also called 3A7 clone) VH: QVTLKESGPGILQPSQTLSLTCSFSGFSLSTSGMGVSWIRQPSGKGLEWLAHIYWDDDKRYNPSLKSRLTISKDTSSSQVFLKITSVDTVDTATYYCARRGPLITTDGTFDVWGAGTTVTVSS VL: DIVMTQSRKFMSTSVGDRVSITCKASQDVGTSVAWYQQKPGQSPKLLIYWASTRHTGVPDRFTGSGSGTDFTLTINSVQSEDLADYFCQQYSSYPYTFGGGTKLEMK", "values": [
      {"measurement": "Kd", "result": "~0.01", "unit": "nM"}
    ]}
  ]
}
